# Data taken from patent publication US10975357B2, “Methods and compositions related to differentiated lung cells” (TRUSTEES OF BOSTON UNIVERSITY, priority 2017, dated 2021).
# How the values were obtained:
# [1] = test system: NKX2-1+ lung epithelial progenitor cells; assay: SFTPCtdTomato reporter induction in day 15 NKX2-1+ progenitor outgrowth in 3D culture (flow cytometry); format: cell-based, human; conditions: for further SFTPC induction efficiency with addition of the factor: factor added to differentiation media, FIG. 9B
# Experimental: Purification of NKX2-1+ Lung Progenitors by Cell Sorting. On day 15 of differentiation, cells were incubated at 37° C. in 0.05% trypsin-EDTA (Invitrogen) for 7-15 minutes, until they reached single cell suspension. Cells were then washed in media containing 10% fetal bovine serum (FBS, ThermoFisher), centrifuged at 300g×5 minutes, and resuspended in sort buffer containing Hank's Balanced Salt Solution (ThermoFisher), 2% FBS, 10 μM Y-27632, and 10 uM calcein blue AM (Life Technologies) for dead cell exclusion. Cells not containing the NKX2-1GFP reporter were subsequently stained with CD47-PerCPCy5.5 and CD26-PE antibodies (mouse monoclonal; Biolegend 1:200; 1×10^6 cells in 100 ul) for 30 minutes at 4° C., washed with PBS, and resuspended in sort buffer. Cells were passed through a 40 um strainer prior to sorting (Falcon). Various live cell populations indicated in the text (i.e. GFP+, GFP−, CD47hi/CD26−,CD47lo) were sorted on a high-speed cell sorter (MoFlo Legacy). Directed Differentiation of NKX2-1+ Lung Progenitor Outgrowth into iAEC2s Day 15 cells, either sorted (as described above) or unsorted (dissociated as described above), were resuspended in undiluted growth factor-reduced matrigel (Corning) at a dilution of 50-100 cells/ul, with droplets ranging in size from 20 ul in 96 well plates to 1 ml in 10 cm tissue culture-treated dishes (Corning). Cells in matrigel suspension were incubated at 37° C. for 20-30 minutes, then warm media was added to the plates.
# (§1) Where indicated in the text, outgrowth and distal/alveolar differentiation of cells after day 15 was performed in “CK+DCI” medium, consisting of cSFDM base, with 3 μM CHIR99021, 10 ng/mL rhKGF, and 50 nM dexamethasone (Sigma), 0.1 mM 8-Bromoadenosine 3′,5′-cyclic monophosphate sodium salt (Sigma) and 0.1 mM 3-Isobutyl-1-methylxanthine (IBMX) (Sigma) (DCI). Immediately after replating cells on Day 15 10 μM Y-27632 was added to the medium for 24 hours. Additional growth factors or cytokines were added or withdrawn as indicated in the text, including FGF10, TGFb, EGF, OSM (20 ng/ml), TNFa (10 ng/ml), and IL-1b (10 ng/ml) with other concentrations listed in figure legends (FIGS. 9A, 9B).
# Alveolosphere Long Term Culture, Dissociation, and Differentiation. […] These spheres were analyzed as follows: Z-stack images of live alveolospheres were taken and processed on a Keyence (Osaka, Japan) BZ-X700 fluorescence microscope. […] To generate single cell suspensions, cell pellets were incubated in 0.05% trypsin and continued through the trypsin-based dissociation protocol described above, after which they could be passaged into fresh matrigel, analyzed by flow cytometry, or sorted as described above. […]
# JAK/STAT3 pathway = assay: Cytokine stimulation of PSC-derived alveolospheres, JAK/STAT3 pathway (Western blot phospho-STAT3, SOCS3 RT-qPCR); format: cell-based, human; conditions: OSM 20 ng/ml
# Experimental: as §1
# Reverse Transcriptase Quantitative Real Time Polymerase Chain Reaction (RT-qPCR). RT-qPCR was performed as previously described (Hawkins et al. 2017,). Briefly, RNA was isolated according to manufacturer's instructions using the Qiagen miRNeasy mini kit (Qiagen, Venlo, Netherlands). cDNA was generated by reverse transcription of up to 150 ng RNA from each sample using the Applied Biosystems High-Capacity cDNA Reverse Transcription Kit. […] Relative gene expression was calculated based on the average cycle (Ct) value of the technical triplicates, normalized to 18S control, and reported as fold change (2(−ΔΔCT)), with a fold change of 1 being assigned to undifferentiated (day 0) iPSCs or ESCs. […]
molecule,measurement,setting,value
"KGF: Recombinant human KGF, agonist of FGF signaling (protein, UniProt P21781 32-194, looked up) Fibroblast growth factor 7: CNDMTPEQMATNVNCSSPERHTRSYDYMEGGDIRVRRLFCRTQWYLRIDKRGKVKGTQEMKNNYNIMEIRTVAVGIVAIKGVESEFYLAMNKEGKLYAKKECNEDCNFKELILENHYNTYASAKWTHNGGEMFVALNQKGIPVRGKKTKKEQKTAHFLPMAIT",need for initial induction of the tdTomato reporter,"[1]; component removed from media, FIG. 9A, 9B",dispensable
same,"promoting outgrowth of tdTomato+ cells by day 21, combined with CHIR, compared to FGF10+CHIR","[1]; day 21, FIG. 9B",more consistent
"FGF10: Recombinant human FGF10 (protein, UniProt O15520 38-208, looked up) Fibroblast growth factor 10: QALGQDMVSPEATNSSSSSFSSPSSAGRHVRSYNHLQGDVRWRKLFSFTKYFLKIEKNGKVSGTKKENCPYSILEITSVEIGVVAVKAINSNYYLAMNKKGKLYGSKEFNNDCKLKERIEENGYNTYASFNWQHNGRQMYVALNGKGAPRRGQKTRRKNTSAHFLPMVVHS",further SFTPC induction efficiency with addition of the factor,[1],No consistent further SFTPC induction efficiency
"OSM: Recombinant human OSM, cytokine activating the JAK/STAT3 pathway (protein, UniProt P13725 26-221, looked up) Oncostatin-M: AAIGSCSKEYRVLLGQLQKQTDLMQDTSRLLDPYIRIQGLDVPKLREHCRERPGAFPSEETLRGLGRRGFLQTLNATLGCVLHRLADLEQRLPKAQDLERSGLNIEDLEKLQMARPNILGLRNNIYCMAQLLDNSDTAEPTKAGRGASQPPTPTPASDAFQRKLEGCRFLHGYHRFMHSVGRVFSKWGESPNRSRR","STAT3 signaling (phosphorylated STAT3 protein, SOCS3 mRNA)",JAK/STAT3 pathway,significant and rapid activation of STAT3 signaling
"BMP4: recombinant human BMP4 (protein, UniProt P12644 293-408, looked up) Bone morphogenetic protein 4: SPKHHSQRARKKNKNCRRHSLYVDFSDVGWNDWIVAPPGYQAFYCHGDCPFPLADHLNSTNHAIVQTLVNSVNSSIPKACCVPTELSAISMLYLDEYDKVVLKNYQEMVVEGCGCR",further SFTPC induction efficiency with addition of the factor,[1],No consistent further SFTPC induction efficiency
